Paper PMC8464063, “The bacterial iron sensor IdeR recognizes its DNA targets by indirect readout”
One block for each molecule: values may come before it.

Columns and labels:
[1] = target: Saccharopolyspora erythraea iron-dependent regulator IdeR, wild type (Saccharopolyspora erythraea); assay: crystal structure; Co2+-activated IdeR WT without DNA; 12 mg/ml protein with 1 mM CoCl2 and 0.3 mg/ml trypsin before crystallisation; 25% PEG 1500, 20°C; space group P1, one IdeR dimer in the asymmetric unit
[2] = target: Saccharopolyspora erythraea iron-dependent regulator IdeR, wild type (Saccharopolyspora erythraea); assay: crystal structure; IdeR (WT, Q43A or P39G) with 1 mM CoCl2 or Fe(NH4)2(SO4)2 and 150 uM 30-bp double-stranded DNA (consensus or C10S1); space group C2, two IdeR dimers and one DNA duplex in the asymmetric unit
[3] = target: Saccharopolyspora erythraea IdeR Q43A variant (Saccharopolyspora erythraea); assay: as above
[4] = target: Saccharopolyspora erythraea IdeR P39G variant (Saccharopolyspora erythraea); assay: as above
IdeR WT [5] = target: T1, IdeR WT (Saccharopolyspora erythraea DSM 40517, UniProt A0ABF7PL34 1-231); assay: EMSA; 30 uM Co2+; EMSA: 15 mM Tris-acetate pH 7.3, 4 mM K-acetate, 10% glycerol, 17 ng/ul poly(dI-dC), 30 nM DNA, 30 uM Co2+, IdeR 15 nM-2.25 uM dimer, 20 min room temperature; 4% native gel at 4 C; settings: protein: recombinant, tags: N-terminal His6 removed by TEV, Gly-His remains before Met1, chain copies: 4, blunt
IdeR WT [6] = target: T1, IdeR WT; assay: EMSA; 30 uM Co2+; up to 22.5 uM dimer; EMSA: 15 mM Tris-acetate pH 7.3, 4 mM K-acetate, 10% glycerol, 17 ng/ul poly(dI-dC), 30 nM DNA, 30 uM Co2+, IdeR 15 nM-2.25 uM dimer, 20 min room temperature; 4% native gel at 4 C; settings: protein: recombinant, tags: N-terminal His6 removed by TEV, Gly-His remains before Met1, chain copies: 4, blunt
IdeR P39G [7] = target: T2, IdeR P39G (Saccharopolyspora erythraea DSM 40517, UniProt A0ABF7PL34 1-231, P39G); assay: EMSA; 30 uM Co2+; EMSA: 15 mM Tris-acetate pH 7.3, 4 mM K-acetate, 10% glycerol, 17 ng/ul poly(dI-dC), 30 nM DNA, 30 uM Co2+, IdeR 15 nM-2.25 uM dimer, 20 min room temperature; 4% native gel at 4 C; settings: protein: recombinant; tags: N-terminal His6 removed by TEV; Gly-His remains before Met1; chain copies: 4; label: 5' Cy5 or 5' FAM on strand 1; blunt
IdeR Q43A = IdeR Q43A (Saccharopolyspora erythraea DSM 40517, UniProt A0ABF7PL34 1-231, Q43A); assay: as above; settings: protein: recombinant; tags: N-terminal His6 removed by TEV; Gly-His remains before Met1; chain copies: 4; label: 5' Cy5 or 5' FAM on strand 1; blunt
IdeR WT [8] = target: T1, IdeR WT; assay: EMSA; 30 uM Co2+; one dimer bound; EMSA: 15 mM Tris-acetate pH 7.3, 4 mM K-acetate, 10% glycerol, 17 ng/ul poly(dI-dC), 30 nM DNA, 30 uM Co2+, IdeR 15 nM-2.25 uM dimer, 20 min room temperature; 4% native gel at 4 C; settings: protein: recombinant; tags: N-terminal His6 removed by TEV; Gly-His remains before Met1; chain copies: 4; label: 5' Cy5 on strand 1; blunt
IdeR P39G [9] = target: T2, IdeR P39G; assay: X-ray crystallography; Co2+; two dimers per duplex; EMSA: 15 mM Tris-acetate pH 7.3, 4 mM K-acetate, 10% glycerol, 17 ng/ul poly(dI-dC), 30 nM DNA, 30 uM Co2+, IdeR 15 nM-2.25 uM dimer, 20 min room temperature; 4% native gel at 4 C; settings: protein: recombinant; tags: N-terminal His6 removed by TEV; Gly-His remains before Met1; chain copies: 4; blunt
IdeR WT [10] = target: T1, IdeR WT; assay: X-ray crystallography; Fe2+; two dimers per duplex; EMSA: 15 mM Tris-acetate pH 7.3, 4 mM K-acetate, 10% glycerol, 17 ng/ul poly(dI-dC), 30 nM DNA, 30 uM Co2+, IdeR 15 nM-2.25 uM dimer, 20 min room temperature; 4% native gel at 4 C; settings: protein: recombinant; tags: N-terminal His6 removed by TEV; Gly-His remains before Met1; chain copies: 4; blunt

stoichiometry N [1]: 2
stoichiometry N [2]: 2
Molecule: Saccharopolyspora erythraea iron-dependent regulator IdeR, wild type (natural protein)

stoichiometry N [3]: 2
Molecule: Saccharopolyspora erythraea IdeR Q43A variant (natural protein)

stoichiometry N [4]: 2
Molecule: Saccharopolyspora erythraea IdeR P39G variant (natural protein)

B1: Consensus_C2-T2 (dsDNA)
DNA 1: CGTACTTAAGTTAAGTTAACTTAAGTCACG
DNA 2: CGTGACTTAAGTTAACTTAACTTAAGTACG
Kd (IdeR WT [5]; label: 5' FAM on strand 1): ~105 nM

B2: Consensus_C1C2-T1T2 (dsDNA)
DNA 1: CGTACTTAAATTAAATTAATTTAAGTACG
DNA 2: CGTACTTAAATTAATTTAATTTAAGTACG
binding result (IdeR WT [6]; label: 5' Cy5 on strand 1): no binding

B3: Consensus_Full (dsDNA)
DNA 1: CGTACTTAGGTTAGGCTAACCTAAGTACG
DNA 2: CGTACTTAGGTTAGCCTAACCTAAGTACG
Kd (IdeR P39G [7]): ~264 nM
Kd (IdeR WT [5]; label: 5' Cy5 or 5' FAM on strand 1): ~45 nM
Kd (IdeR Q43A): ~65 nM

B4: Half site (dsDNA)
DNA 1: CGTACCCGGTTTAGGGCCACCTAAGTACG
DNA 2: CGTACTTAGGTGGCCCTAAACCGGGTACG
Kd (IdeR WT [8]): ~78 nM

B5: Minimal_CNTNN (dsDNA)
DNA 1: CGTACGCACGCGATGCTCGCATCCGTACG
DNA 2: CGTACGGATGCGAGCATCGCGTGCGTACG
binding result (IdeR WT [6]; label: 5' Cy5 on strand 1): no binding

B6: Minimal_NCTNN (dsDNA)
DNA 1: CGTACGCAGACGAGACTCGTCTGCGCTACG
DNA 2: CGTAGCGCAGACGAGTCTCGTCTGCGTACG
binding result (IdeR WT [6]; label: 5' FAM on strand 1): no binding

B7: Cons_long (crystal) (dsDNA)
DNA 1: CGTACTTAGGTTAGGCTAACCTAAGTCACG
DNA 2: CGTGACTTAGGTTAGCCTAACCTAAGTACG
binding result (IdeR P39G [9]): binds
binding result (IdeR WT [10]): binds

B8: Consensus_T3-G3 (dsDNA)
DNA 1: CGTACTTCGGTTCGGCGAACCGAAGTACG
DNA 2: CGTACTTCGGTTCGCCGAACCGAAGTACG
binding result (IdeR WT [6]; label: 5' Cy5 on strand 1): no binding

B9: C10S1 (dsDNA)
DNA 1: CGTACTTTGGTAAAGCTAACCTAAGTCACC
DNA 2: GGTGACTTAGGTTAGCTTTACCAAAGTACG
Kd (IdeR WT [5]; label: 5' FAM on strand 1): ~116 nM

B10: Consensus_C1-T1 (dsDNA)
DNA 1: CGTACTTAGATTAGACTAATCTAAGTACG
DNA 2: CGTACTTAGATTAGTCTAATCTAAGTACG
Kd (IdeR WT [5]; label: 5' Cy5 on strand 1): ~70 nM

B11: C23S1 (dsDNA)
DNA 1: AGTCATAAAGTTAGGTTCGCCTCACTACT
DNA 2: AGTAGTGAGGCGAACCTAACTTTATGACT
Kd (IdeR WT [8]): ~102 nM

B12: C10S2 (dsDNA)
DNA 1: GATGCTTAGGTTAGCCTACCCGACGCTGA
DNA 2: TCAGCGTCGGGTAGGCTAACCTAAGCATC
Kd (IdeR WT [5]; label: 5' Cy5 on strand 1): ~94 nM

B13: Consensus_A4A5-S4S5 (dsDNA)
DNA 1: CGTACGCAGGCGAGGCTCGCCTGCGTACG
DNA 2: CGTACGCAGGCGAGCCTCGCCTGCGTACG
Kd (IdeR WT [5]; label: 5' Cy5 on strand 1): ~128 nM
